According to patent US20090208949A1 (WISCONSIN ALUMNI RESEARCH FOUNDATION, published 2009):
Where no end group is shown, it is not given here.

Tests used:
sorting nexin 5 = target: T1, sorting nexin 5 (Homo sapiens (Human), UniProt Q9Y5X3 1-404, limits assumed); assay: yeast two-hybrid screen
T1 construct: also called SNX5; Myc-SNX5
T1 sequence: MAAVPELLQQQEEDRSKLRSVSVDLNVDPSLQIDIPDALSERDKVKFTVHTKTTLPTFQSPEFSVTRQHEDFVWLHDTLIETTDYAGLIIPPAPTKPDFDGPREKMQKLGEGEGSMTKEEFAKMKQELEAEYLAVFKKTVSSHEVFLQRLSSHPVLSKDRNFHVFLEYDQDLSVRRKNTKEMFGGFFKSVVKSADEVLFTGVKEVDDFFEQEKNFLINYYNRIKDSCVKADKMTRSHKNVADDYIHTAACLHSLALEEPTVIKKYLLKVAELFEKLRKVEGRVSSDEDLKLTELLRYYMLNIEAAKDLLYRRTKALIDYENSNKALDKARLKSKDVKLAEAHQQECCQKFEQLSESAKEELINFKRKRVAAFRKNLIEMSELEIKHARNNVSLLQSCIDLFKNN

LMO4 = target: T2, LMO4 (Homo sapiens (Human), UniProt P61968 1-165); assay: yeast two-hybrid screen
T2 sequence: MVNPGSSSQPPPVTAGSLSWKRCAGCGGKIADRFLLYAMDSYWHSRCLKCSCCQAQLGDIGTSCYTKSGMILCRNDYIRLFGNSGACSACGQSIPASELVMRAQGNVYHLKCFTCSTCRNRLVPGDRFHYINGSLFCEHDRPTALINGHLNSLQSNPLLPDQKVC

B1: C-terminus of the PIPKIγ 707 splice variant (other)
chain: FTDGRYWIYSPRHRRLRAVTLSASGTVSDRSRPPWGEGAVPLGQQGAAGPRPEAQCLTSVVFQKGFG
notes: Yeast two-hybrid bait
B1: binds (sorting nexin 5).

B2: C-terminus of the PIPKIγ 700 variant (other)
chain: WRLWGPHAPTWPWRREGRAACLCPYPPHVVTPFPGTGLCASWSPDGTGGLGAMSCCVSVS
modifications: not fully specified; cysteine pairing not given here
notes: Yeast two-hybrid bait
B2: binds (LMO4).
